{"source": "paper doi:10.1101/2022.07.21.500988", "about": "“Molecular insight into the enzymatic macrocyclization of multiply backbone N-methylated peptides” (bioRxiv, 2022)", "target": "T1, OphP(S580A) (Omphalotus olearius, S580A)", "T1 construct": "also called OphP variant S580A", "T1 chain": "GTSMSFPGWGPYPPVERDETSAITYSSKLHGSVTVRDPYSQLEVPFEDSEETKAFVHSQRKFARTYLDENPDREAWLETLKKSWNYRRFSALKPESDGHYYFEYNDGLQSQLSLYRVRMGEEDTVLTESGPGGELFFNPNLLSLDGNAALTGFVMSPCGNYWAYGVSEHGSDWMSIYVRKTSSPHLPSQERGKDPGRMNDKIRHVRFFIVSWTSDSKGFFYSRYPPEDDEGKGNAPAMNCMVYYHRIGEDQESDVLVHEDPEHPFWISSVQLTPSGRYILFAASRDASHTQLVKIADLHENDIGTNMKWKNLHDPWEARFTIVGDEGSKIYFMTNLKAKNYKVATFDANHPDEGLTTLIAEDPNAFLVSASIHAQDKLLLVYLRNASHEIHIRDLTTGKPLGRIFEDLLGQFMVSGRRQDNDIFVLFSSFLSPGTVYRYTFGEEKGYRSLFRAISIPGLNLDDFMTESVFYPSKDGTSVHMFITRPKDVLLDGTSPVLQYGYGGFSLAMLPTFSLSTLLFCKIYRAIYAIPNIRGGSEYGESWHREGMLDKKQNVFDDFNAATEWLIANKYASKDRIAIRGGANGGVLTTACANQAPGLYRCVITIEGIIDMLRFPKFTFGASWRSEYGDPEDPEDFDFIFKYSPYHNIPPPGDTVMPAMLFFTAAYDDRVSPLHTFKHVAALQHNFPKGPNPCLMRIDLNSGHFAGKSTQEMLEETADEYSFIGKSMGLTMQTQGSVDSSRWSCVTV", "assay": "crystal structure", "settings": "both partners purified"}
{"binder": "GFPWVIVVGVIGVIG", "note": "[Oph-15mer]", "values": [{"measurement": "binding result", "result": "binds"}]}
{"binder": "WVIVVGVIGVIGSVMSTE (also called 18mer^CF)", "note": "[Oph-18mer^NL]", "values": [{"measurement": "binding result", "result": "binds"}]}
